From PMC4655608 (The Biochemical journal, 2015)

B1: p87 non-catalytic subunit of PI3Kγ (natural protein, UniProt Q5UE93 1-754, looked up)
chain: MESSDVELDLQRSVQAVLRELSTQAPALQSNQGMWRWSLHKKVERDPGKSPVLVRILLRELEKAESQDLRHVIIPLLHTVMYVLTKATGITEELYQRIYAFCTRLLTLPTPYCTVALDCAIRLKTEMAVPGTLYQRMVIAEQNLTNELYPYQERVFLFVDPELVSASVCSALLLEIEAAQAQQTPETCMRHVVSHALQAALGEACHAGALHRKLQASPRRTLEHYFHAVVAALEQMASEASPSREGHVERLEEIYCSLLGPAAGRCGGDLVQERPPSIPLPSPYITFHLWTGEEQLWKELVLFLRPRSQLRLSADLEVLDLQGLRPDRELARVSVLSTDSGIERDLPTGADELPAPGSPEMERAGLQRKGGIKKRAWPLDFLMPGSWDGPPGLHRRTGRPSGDGEMLPGVSRLHTARVLVLGDDRMLGRLAQAYHRLRKRETQKFCLTPRLSLQLYYIPVLAPEKPAASRQPELGELATFLGRVDPWYQSNVNTLCPAIHKLAEMPPSLDTSRTVDPFILDVITYYIRMGTQPIYFQIYTVKIFFSDLSQDPTEDIFLIELKVKIQDSKFPKDGFSPRRRGVAEGPGAELSLCYQKALLSHRPREVTVSLRATGLILKAIPASDTEVSGSSHCPLPAAPVTDHTCLNVNVTEVVKSSNLAGKSFSTVTNTFRTNNIQIQSRDQRLLTLSLDKDDQRTFRDVVRFEVAPCPEPCSGAQKSKAPWLNLHGQQEVEAIKAKPKPLLMPINTFSGIVQ
B2: p101 non-catalytic subunit of PI3Kγ (natural protein, UniProt Q8WYR1 1-880, looked up)
chain: MQPGATTCTEDRIQHALERCLHGLSLSRRSTSWSAGLCLNCWSLQELVSRDPGHFLILLEQILQKTREVQEKGTYDLLTPLALLFYSTVLCTPHFPPDSDLLLKAASTYHRFLTWPVPYCSICQELLTFIDAELKAPGISYQRLVRAEQGLPIRSHRSSTVTVLLLNPVEVQAEFLAVANKLSTPGHSPHSAYTTLLLHAFQATFGAHCDVPGLHCRLQAKTLAELEDIFTETAEAQELASGIGDAAEARRWLRTKLQAVGEKAGFPGVLDTAKPGKLHTIPIPVARCYTYSWSQDSFDILQEILLKEQELLQPGILGDDEEEEEEEEEVEEDLETDGHCAERDSLLSTSSLASHDSTLSLASSQASGPALSRHLLTSFVSGLSDGMDSGYVEDSEESSSEWPWRRGSQERRGHRRPGQKFIRIYKLFKSTSQLVLRRDSRSLEGSSDTALPLRRAGSLCSPLDEPVSPPSRAQRSRSLPQPKLGTQLPSWLLAPASRPQRRRPFLSGDEDPKASTLRVVVFGSDRISGKVARAYSNLRRLENNRPLLTRFFKLQFFYVPVKRSHGTSPGACPPPRSQTPSPPTDSPRHASPGELGTTPWEESTNDISHYLGMLDPWYERNVLGLMHLPPEVLCQQSLKAEAQALEGSPTQLPILADMLLYYCRFAARPVLLQVYQTELTFITGEKTTEIFIHSLELGHSAATRAIKASGPGSKRLGIDGDREAVPLTLQIIYSKGAISGRSRWSNLEKVCTSVNLNKACRKQEELDSSMEALTLNLTEVVKRQNSKSKKGFNQISTSQIKVDKVQIIGSNSCPFAVCLDQDERKILQSVVRCEVSPCYKPEKSDLSSPPQTPPDLPAQAAPDLCSLLCLPIMTFSGALP

Target: catalytic p110γ subunit of class IB phosphoinositide 3-kinase (PI3Kγ) (human, UniProt P48736 1-1102)
Sequence (P48736 whole entry): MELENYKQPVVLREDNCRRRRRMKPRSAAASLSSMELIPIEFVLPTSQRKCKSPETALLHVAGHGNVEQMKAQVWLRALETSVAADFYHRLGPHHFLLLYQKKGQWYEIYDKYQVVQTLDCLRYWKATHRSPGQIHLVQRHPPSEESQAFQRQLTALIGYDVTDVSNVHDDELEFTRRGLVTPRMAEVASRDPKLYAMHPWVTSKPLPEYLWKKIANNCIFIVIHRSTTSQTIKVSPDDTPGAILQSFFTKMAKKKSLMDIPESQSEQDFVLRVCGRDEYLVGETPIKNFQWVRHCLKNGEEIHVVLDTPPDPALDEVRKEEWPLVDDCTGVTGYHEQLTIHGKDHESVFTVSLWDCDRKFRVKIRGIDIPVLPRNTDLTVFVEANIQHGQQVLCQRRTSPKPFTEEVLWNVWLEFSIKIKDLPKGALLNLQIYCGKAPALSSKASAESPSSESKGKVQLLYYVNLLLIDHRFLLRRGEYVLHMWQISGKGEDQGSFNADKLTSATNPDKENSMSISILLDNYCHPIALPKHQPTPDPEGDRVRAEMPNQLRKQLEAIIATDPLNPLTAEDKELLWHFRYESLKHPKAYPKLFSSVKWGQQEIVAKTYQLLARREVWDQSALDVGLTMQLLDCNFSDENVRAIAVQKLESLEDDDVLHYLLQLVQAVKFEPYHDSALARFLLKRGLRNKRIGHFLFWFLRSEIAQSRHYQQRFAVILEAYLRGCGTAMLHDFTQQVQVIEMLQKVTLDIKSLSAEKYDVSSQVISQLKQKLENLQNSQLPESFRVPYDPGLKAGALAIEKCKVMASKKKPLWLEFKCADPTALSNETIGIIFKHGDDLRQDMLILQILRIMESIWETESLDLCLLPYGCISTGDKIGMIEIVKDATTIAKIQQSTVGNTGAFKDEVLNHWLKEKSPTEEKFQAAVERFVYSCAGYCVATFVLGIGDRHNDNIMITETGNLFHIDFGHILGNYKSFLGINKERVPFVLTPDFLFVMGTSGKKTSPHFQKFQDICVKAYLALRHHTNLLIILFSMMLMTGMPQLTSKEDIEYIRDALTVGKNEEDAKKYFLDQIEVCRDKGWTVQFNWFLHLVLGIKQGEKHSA
Assay: AUC

Row | Binder | Kd [nM]
1 | B1 | ≤ 200
2 | B2 | ≤ 100
